Ends that are not written are not given here.
Target: recombinant Drp1 (GST-Drp1) (human, UniProt O00429 1-736)
Test: cell-based or functional assay

Chain of recombinant Drp1 (GST-Drp1) (O00429 other isoform, or with tags, fused parts or gaps): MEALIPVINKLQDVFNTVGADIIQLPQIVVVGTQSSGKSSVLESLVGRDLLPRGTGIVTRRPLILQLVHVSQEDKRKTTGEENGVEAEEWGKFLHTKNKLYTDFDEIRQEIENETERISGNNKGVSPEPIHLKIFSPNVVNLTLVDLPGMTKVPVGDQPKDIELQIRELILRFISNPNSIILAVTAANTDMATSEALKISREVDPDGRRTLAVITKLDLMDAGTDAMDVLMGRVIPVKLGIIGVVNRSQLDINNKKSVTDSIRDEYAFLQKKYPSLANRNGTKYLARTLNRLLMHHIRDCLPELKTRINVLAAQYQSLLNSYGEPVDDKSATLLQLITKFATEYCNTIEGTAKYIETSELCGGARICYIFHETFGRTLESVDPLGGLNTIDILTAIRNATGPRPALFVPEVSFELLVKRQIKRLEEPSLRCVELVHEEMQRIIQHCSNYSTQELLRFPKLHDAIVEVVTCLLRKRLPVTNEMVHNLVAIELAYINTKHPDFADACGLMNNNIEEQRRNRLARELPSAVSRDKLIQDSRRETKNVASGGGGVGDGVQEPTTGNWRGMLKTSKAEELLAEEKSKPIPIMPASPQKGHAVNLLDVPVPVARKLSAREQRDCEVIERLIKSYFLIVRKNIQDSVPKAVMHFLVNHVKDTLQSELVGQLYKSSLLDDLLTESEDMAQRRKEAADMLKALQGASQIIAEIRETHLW

Binder: RRRQRRKKRGYGGKLSAREQRD-NH2 [P109]
- GTPase activity of recombinant Drp1 (in vitro GTPase assay kit): 40 % inhibition
